Source: patent US20240116985A1, “STAPLED PEPTIDES AND METHODS THEREOF” (priority 2020, published 2024)
Starred links: 1 amine or outer side, 2 acyl side, 3 side chain; linkers in the order of their positions; H or OH if unused. Positions of bridges follow the written chain, without caps; N, C: chain ends. Non-standard residues stand in square brackets, D forms with d. Primed or numbered codes have the meaning given here. (CH2CMe2CO2H)TriAzDap = (S)-3-(1-(2-amino-2-carboxyethyl)-1H-1,2,3-triazol-4-yl)-2,2-dimethylpropanoic acid, CC(C)(Cc1cn(C[C@H](N[*:1])C(=O)[*:2])nn1)C(=O)[*:3]; (CMe2CO2H)TriAzDap = (S)-2-amino-3-(4-(2-carboxypropan-2-yl)-1H-1,2,3-triazol-1-yl)propanoic acid, CC(C)(C(=O)[*:3])c1cn(C[C@H](N[*:1])C(=O)[*:2])nn1; PyrS2″ = (S)-3-amino-1-((pent-4-en-1-yloxy)carbonyl)pyrrolidine-3-carboxylic acid (stapling residue), C=CCCCOC(=O)N1CC[C@@](N[*:1])(C(=O)[*:2])C1; (CH2CH2CO2H)TriAzDap = (S)-2-amino-3-(4-(2-carboxyethyl)-1H-1,2,3-triazol-1-yl)propanoic acid, O=C([C@H](Cn1cc(CCC(=O)[*:3])nn1)N[*:1])[*:2]; B5(4) = 2,2-bis(4-pentenyl)glycine = 2-amino-2-(pent-4-en-1-yl)hept-6-enoic acid (stitching residue), C=CCCCC(CCCC=C)(N[*:1])C(=O)[*:2]; B5(5) = 2,2-bis(4-pentenyl)glycine, 2-amino-2-(pent-4-en-1-yl)hept-6-enoic acid (stitching residue), C=CCCCC(CCCC=C)(N[*:1])C(=O)[*:2]; TfeGA = (S)-2-amino-3-((carboxymethyl)(2,2,2-trifluoroethyl)amino)propanoic acid, O=C([C@H](CN(CC(=O)[*:3])CC(F)(F)F)N[*:1])[*:2]; PyrS2 = (S)-3-amino-1-((pent-4-en-1-yloxy)carbonyl)pyrrolidine-3-carboxylic acid, C=CCCCOC(=O)N1CC[C@@](N[*:1])(C(=O)[*:2])C1; (3C)TriAzLys = (S)-2-amino-6-(4-propyl-1H-1,2,3-triazol-1-yl)hexanoic acid, CCCc1cn(CCCC[C@H](N[*:1])C(=O)[*:2])nn1; B5(12) = 2-amino-2-(pent-4-en-1-yl)hept-6-enoic acid (two olefin side chains), C=CCCCC(CCCC=C)(N[*:1])C(=O)[*:2]; EtGA = (S)-2-amino-3-((carboxymethyl)(ethyl)amino)propanoic acid, CCN(CC(=O)[*:3])C[C@H](N[*:1])C(=O)[*:2]; PyrS2(5) = (S)-3-amino-1-((alkenyloxy)carbonyl)pyrrolidine-3-carboxylic acid, carbamate stapling residue; 2COOHF = (S)-2-(2-amino-2-carboxyethyl)benzoic acid, O=C([C@H](Cc1ccccc1C(=O)[*:3])N[*:1])[*:2]; B5(3) = 2,2-bis(4-pentenyl)glycine (stitching residue), C=CCCCC(CCCC=C)(N[*:1])C(=O)[*:2]; B5 = 2-amino-2-(pent-4-en-1-yl)hept-6-enoic acid, C=CCCCC(CCCC=C)(N[*:1])C(=O)[*:2]; 2F3MeF = Cc1cccc(C[C@H](N[*:1])C(=O)[*:2])c1F; Phe(2-CF3) = N[C@@H](Cc1ccccc1C(F)(F)F)C(=O)O; Phe(2-Cl) = N[C@@H](Cc1ccccc1Cl)C(=O)O; Bta = N[C@@H](Cc1csc2ccccc12)C(=O)O; Lys(iPr) = CC(C)NCCCC[C@H](N)C(=O)O; αAllylPro = C=CC[C@@]1(C(=O)O)CCCN1; tBuAla = CC(C)(C)C[C@H](N)C(=O)O; 3Thi = N[C@@H](Cc1ccsc1)C(=O)O; Aad = N[C@@H](CCCC(=O)O)C(=O)O; Cha = N[C@@H](CC1CCCCC1)C(=O)O; Cit = NC(=O)NCCC[C@H](N)C(=O)O; S8 = C=CCCCCCC[C@](C)(N)C(=O)O; Thr(ol) = C[C@@H](O)[C@H](N)CO

Experiments:
[1] = target: full-length beta-Catenin (Uniprot ID P35222) (Homo sapiens (Human)) (UniProt P35222); test: fluorescence polarization competition; 10 nM full-length beta-catenin, 10 nM 5FAM-TCF4(10-53) probe
Target sequence in this assay (P35222 2-781 limits assumed): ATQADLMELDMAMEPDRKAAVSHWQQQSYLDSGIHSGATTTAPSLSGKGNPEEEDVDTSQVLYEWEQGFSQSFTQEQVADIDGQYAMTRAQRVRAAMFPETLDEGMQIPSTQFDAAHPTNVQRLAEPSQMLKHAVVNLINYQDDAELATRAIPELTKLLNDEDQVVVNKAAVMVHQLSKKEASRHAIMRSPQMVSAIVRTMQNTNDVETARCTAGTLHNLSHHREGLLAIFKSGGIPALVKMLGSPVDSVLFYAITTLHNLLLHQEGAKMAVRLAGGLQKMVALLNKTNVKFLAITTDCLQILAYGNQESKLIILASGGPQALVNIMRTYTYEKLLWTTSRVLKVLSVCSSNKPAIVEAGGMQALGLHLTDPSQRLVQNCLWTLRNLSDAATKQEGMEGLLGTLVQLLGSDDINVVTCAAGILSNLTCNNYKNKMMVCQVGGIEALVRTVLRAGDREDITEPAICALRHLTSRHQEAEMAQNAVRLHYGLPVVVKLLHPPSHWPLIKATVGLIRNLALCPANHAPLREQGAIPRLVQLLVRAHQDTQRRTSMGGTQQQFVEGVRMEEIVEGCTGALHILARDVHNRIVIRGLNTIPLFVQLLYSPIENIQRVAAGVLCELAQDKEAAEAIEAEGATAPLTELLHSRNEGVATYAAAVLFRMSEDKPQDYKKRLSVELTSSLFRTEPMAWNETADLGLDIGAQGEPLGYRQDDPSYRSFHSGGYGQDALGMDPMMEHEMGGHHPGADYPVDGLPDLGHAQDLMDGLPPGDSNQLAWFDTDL

[2] = target: Bcat-Halo (UniProt P35222); test: NanoBRET in HEK293 cells, Bcat-Halo / TCF4-Luc; absolute IC50
[3] = target: full-length beta-Catenin (Uniprot ID P35222) (Homo sapiens (Human)) (UniProt P35222); test: fluorescence polarization competition; full-length beta-catenin, competitor 5FAM-TCF4(10-53) probe
Target sequence in this assay (P35222 whole entry, the tested form may be a part, one chain of several): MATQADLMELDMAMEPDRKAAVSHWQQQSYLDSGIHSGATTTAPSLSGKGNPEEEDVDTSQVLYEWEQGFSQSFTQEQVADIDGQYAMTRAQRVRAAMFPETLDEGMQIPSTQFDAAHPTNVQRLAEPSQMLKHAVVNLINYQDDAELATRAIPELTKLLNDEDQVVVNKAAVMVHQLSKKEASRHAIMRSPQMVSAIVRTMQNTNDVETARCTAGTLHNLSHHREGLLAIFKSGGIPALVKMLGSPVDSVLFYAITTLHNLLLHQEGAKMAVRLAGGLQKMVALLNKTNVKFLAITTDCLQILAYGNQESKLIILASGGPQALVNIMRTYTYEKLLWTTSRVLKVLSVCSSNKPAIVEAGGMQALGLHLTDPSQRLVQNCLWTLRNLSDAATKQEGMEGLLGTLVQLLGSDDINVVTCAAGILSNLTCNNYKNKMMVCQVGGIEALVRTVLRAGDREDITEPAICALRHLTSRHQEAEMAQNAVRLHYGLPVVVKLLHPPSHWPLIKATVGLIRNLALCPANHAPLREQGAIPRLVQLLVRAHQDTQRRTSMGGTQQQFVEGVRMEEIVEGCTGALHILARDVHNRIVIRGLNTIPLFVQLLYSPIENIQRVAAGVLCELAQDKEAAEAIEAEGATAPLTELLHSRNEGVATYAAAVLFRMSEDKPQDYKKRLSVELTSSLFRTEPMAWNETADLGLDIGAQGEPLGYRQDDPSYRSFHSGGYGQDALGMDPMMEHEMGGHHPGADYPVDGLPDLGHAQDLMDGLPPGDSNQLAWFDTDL

[4] = target: full-length beta-Catenin (Uniprot ID P35222) (Homo sapiens (Human)) (UniProt P35222); test: fluorescence polarization competition; full-length beta-catenin with 5FAM-TCF4(10-53) probe as competitor
Target sequence in this assay (P35222 whole entry, the tested form may be a part, one chain of several): as above

[5] = target: full-length beta-Catenin (Uniprot ID P35222) (Homo sapiens (Human)) (UniProt P35222); test: fluorescence polarization competition; full-length beta-catenin, 5FAM-TCF4 10-53 probe
Target sequence in this assay (P35222 whole entry, the tested form may be a part, one chain of several): as above

[6] = target: Bcat-Halo (beta-catenin HaloTag construct expressed in HEK293 cells) (UniProt P35222); test: NanoBRET Abs IC50 in HEK293 cells; Bcat-Halo with TCF4-Luc as competitor
[7] = target: full-length beta-Catenin (Uniprot ID P35222) (Homo sapiens (Human)) (UniProt P35222); test: fluorescence polarization competition; 10 nM full-length beta-catenin with 10 nM 5FAM-TCF4 (residues 10-53) probe as competitor
Target sequence in this assay (P35222 2-781 limits assumed): as the sequence (P35222 2-781 limits assumed) above

[8] = target: full-length beta-Catenin (Uniprot ID P35222) (Homo sapiens (Human)) (UniProt P35222); test: fluorescence polarization competition; displacement of 5FAM-TCF4(10-53) from full-length beta-catenin
Target sequence in this assay (P35222 whole entry, the tested form may be a part, one chain of several): as the sequence (P35222 whole entry, the tested form may be a part, one chain of several) above

[9] = target: B-cat-Halo (NanoBRET construct) (UniProt P35222); test: NanoBRET Abs IC50; Bcat-Halo/TCF4-Luc in HEK293 cells, competitor TCF4-Luc
[10] = target: full-length beta-Catenin (Uniprot ID P35222) (Homo sapiens (Human)) (UniProt P35222); test: fluorescence polarization competition; full-length beta-catenin, 5FAM-TCF4(10-53) probe
Target sequence in this assay (P35222 whole entry, the tested form may be a part, one chain of several): as above

[11] = target: full-length beta-Catenin (Uniprot ID P35222) (Homo sapiens (Human)) (UniProt P35222); test: fluorescence polarization competition against 5FAM-TCF4 10-53 on full-length beta-catenin
Target sequence in this assay (P35222 whole entry, the tested form may be a part, one chain of several): as above

[12] = target: Bcat-Halo (UniProt P35222); test: NanoBRET Abs IC50, HEK293 cells, B-cat-Halo / TCF4-Luc engagement
[13] = target: full-length beta-Catenin (Uniprot ID P35222) (Homo sapiens (Human)) (UniProt P35222); test: FP competition vs 5FAM-TCF4(10-53), full-length beta-catenin
Target sequence in this assay (P35222 2-781 limits assumed): as the sequence (P35222 2-781 limits assumed) above

[14] = target: Bcat-Halo (UniProt P35222); test: NanoBRET Abs IC50, HEK293 cells, B-cat-Halo/TCF4-Luc; competitor TCF4-Luc
[15] = target: full-length beta-Catenin (Uniprot ID P35222) (Homo sapiens (Human)) (UniProt P35222); test: fluorescence polarization competition; peptide titrated against 10 nM full-length beta-catenin + 10 nM 5FAM-TCF4(10-53) probe

B-cat-Halo (NanoBRET construct), sequence (P35222 whole entry): as the sequence (P35222 whole entry, the tested form may be a part, one chain of several) above
Bcat-Halo, sequence (P35222 whole entry): as the sequence (P35222 whole entry, the tested form may be a part, one chain of several) above
Bcat-Halo (beta-catenin HaloTag construct expressed in HEK293 cells), sequence (P35222 whole entry, the tested form may be a part): as the sequence (P35222 whole entry, the tested form may be a part, one chain of several) above

Ac-[αAllylPro]D[tBuAla][B5(5)]D[2COOHF]AAFF[PyrS2″][2F3MeF][Bta]S-NH2 (staple 1-4, 4-11) [I-1659]
IC50 [1]: 108 nM | IC50 [2]: 11400 nM

Ac-[αAllylPro]DI[B5]D[TfeGA]AAFQ[S8]F[Bta]Q-NH2 (staple 1-4, 4-11; not fully specified) [I-610]
EC50 [3]: 54 nM | IC50 [4]: 54 nM | IC50 [5]: 54 nM

Ac-[αAllylPro]D[tBuAla][B5(3)]DNAAFN[PyrS2″][3Thi][Bta]H-NH2 (staple 1-4, 4-11) [I-837]
IC50 [6]: 23800 nM | EC50 [7]: 5 nM | IC50 [8]: 5 nM

Ac-[αAllylPro]D[tBuAla][B5(5)]D[2COOHF]AAFF[PyrS2″][Phe(2-Cl)][Bta]Q-NH2 (staple 1-4, 4-11) [I-1657]
IC50 [1]: 36 nM | IC50 [2]: 11000 nM

Ac-[αAllylPro]D[tBuAla][B5(3)]D[Cit]AAFN[PyrS2″][3Thi][Bta]H-NH2 (staple 1-4, 4-11) [I-841]
IC50 [6]: 34400 nM | EC50 [7]: 12 nM | IC50 [8]: 12 nM

Ac-[αAllylPro]D[tBuAla][B5(5)]D[2COOHF]AAFF[PyrS2″][3Thi][Bta]S-NH2 (staple 1-4, 4-11) [I-1664]
IC50 [9]: 8000 nM | IC50 [10]: 22 nM

Ac-[αAllylPro]D[tBuAla][B5(4)]D[(CMe2CO2H)TriAzDap]QAFL[PyrS2″][Phe(2-CF3)][Bta]A-NH2 (staple 1-4, 4-11) [I-2369]
IC50 [11]: 14 nM | IC50 [12]: 9500 nM

Ac-[αAllylPro]D[tBuAla][B5(12)]DQAAFN[PyrS2][3Thi][Bta]-NH2 (staple 1-4, 4-11) [I-858]
IC50 [13]: 34 nM | EC50 [7]: 34 nM | IC50 [14]: > 20000 nM

Ac-[αAllylPro]N[Cha][B5(4)]DQ[Lys(iPr)]AFL[PyrS2]F[Bta]Q-NH2 (staple 1-4, 4-11) [I-1648]
IC50 [1]: 191 nM | IC50 [2]: > 20000 nM

Ac-[αAllylPro]DI[B5(5)]D[EtGA]AAFQ[S8]F[Bta]Q-NH2 (staple 1-4, 4-11; also: staple isomer 2, later eluting HPLC peak) [I-609]
EC50 [3]: 80 nM | IC50 [4]: 80 nM | IC50 [5]: 80 nM

Ac-[αAllylPro]DI[B5]D[TfeGA]AAFQ[S8]F[Bta]Q-NH2 (staple 1-4, 4-11; also: staple isomer 2) [I-611]
EC50 [15]: 55 nM | IC50 [4]: 55 nM | IC50 [5]: 55 nM

Ac-[αAllylPro]D[tBuAla][B5(4)]D[(CH2CMe2CO2H)TriAzDap]QAFL[PyrS2″][Phe(2-CF3)][Bta]A-NH2 (staple 1-4, 4-11) [I-2368]
IC50 [11]: 5 nM | IC50 [12]: 5000 nM

Ac-[αAllylPro]D[tBuAla][B5(5)]D[2COOHF]AAFF[PyrS2″][2F3MeF][Bta]Q-NH2 (staple 1-4, 4-11) [I-1655]
IC50 [1]: 48 nM | IC50 [2]: 12700 nM

Ac-[αAllylPro]D[tBuAla][B5(3)]DQAAFN[PyrS2″][3Thi][Bta]Q-NH2 (staple 1-4, 4-11) [I-838]
IC50 [6]: 17400 nM | EC50 [7]: 12 nM | IC50 [8]: 12 nM

Ac-[αAllylPro]D[tBuAla][B5(3)]DYAAFN[PyrS2″][3Thi][Bta]Q-NH2 (staple 1-4, 4-11) [I-842]
IC50 [6]: 47900 nM | EC50 [7]: 34 nM | IC50 [8]: 34 nM

Ac-[αAllylPro]D[tBuAla][B5(5)]D[2COOHF]AAFF[PyrS2″][Phe(2-Cl)][Bta]S-NH2 (staple 1-4, 4-11) [I-1662]
IC50 [9]: 12000 nM | IC50 [10]: 69 nM

Ac-[αAllylPro]D[tBuAla][B5(3)]DQAAFN[PyrS2″][3Thi][Bta]H-NH2 (staple 1-4, 4-11) [I-839]
IC50 [6]: 41900 nM | EC50 [7]: 7 nM | IC50 [8]: 7 nM

Ac-[αAllylPro]D[tBuAla][B5(5)]D[2COOHF]AAFF[PyrS2″][3Thi][Bta]S-NH2 (staple 1-4, 4-11) [I-1665]
IC50 [9]: 9700 nM | IC50 [10]: 17 nM

Ac-[αAllylPro]D[tBuAla][B5(12)]DHAAFN[PyrS2][3Thi][Bta]-NH2 (staple 1-4, 4-11) [I-863]
IC50 [13]: 22 nM | EC50 [7]: 22 nM | IC50 [14]: > 20000 nM

Ac-[αAllylPro]D[tBuAla][B5(12)]DTAAFN[PyrS2][3Thi][Bta]-NH2 (staple 1-4, 4-11; also: earlier eluting HPLC peak (staple isomer)) [I-859]
IC50 [13]: 36 nM | EC50 [7]: 36 nM | IC50 [14]: > 20000 nM

Ac-[αAllylPro]D[tBuAla][B5(5)]D[2COOHF]AAFF[PyrS2″][3Thi][Bta][Thr(ol)] (staple 1-4, 4-11; also: staple isomer, earlier-eluting HPLC peak) [I-1668]
IC50 [9]: 16400 nM | IC50 [10]: 29 nM

Ac-[αAllylPro]D[tBuAla][B5(4)]D[(CH2CH2CO2H)TriAzDap]QAFL[PyrS2″][Phe(2-CF3)][Bta]A-NH2 (staple 1-4, 4-11) [I-2367]
IC50 [11]: 7 nM | IC50 [12]: 6200 nM

Ac-[αAllylPro]D[tBuAla][B5(4)]DDAAFL[PyrS2″][3Thi][Bta][(3C)TriAzLys]-NH2 (staple 1-4, 4-11) [I-2375]
IC50 [11]: 5 nM | IC50 [12]: 13500 nM

Ac-[αAllylPro]D[tBuAla][B5(5)]D[2COOHF]AAFF[PyrS2(5)][3Thi][Bta][Thr(ol)] (staple 1-4, 4-11; also: staple isomer, later-eluting HPLC peak) [I-1669]
IC50 [9]: 11800 nM | IC50 [10]: 30 nM

Ac-[αAllylPro]DI[B5]D[Aad]AAFQ[S8]F[Bta]Q-NH2 (staple 1-4, 4-11) [I-612]
EC50 [15]: 64 nM | IC50 [4]: 64 nM | IC50 [5]: 64 nM
